One molecule from PMC3408474, “Constitutive Phosphorylation of Interferon Receptor A-Associated Signaling Proteins in Systemic Lupus Erythematosus” (PLoS ONE, 2012) can be followed below.

Assay [1] deals with T1, IFNAR1 chain of the type I interferon receptor (IFNAR) (human (endogenous in PBMC), UniProt P17181 28-557).
T1 construct: IFNAR1 chain of the human type I interferon receptor, endogenous in peripheral blood mononuclear cells; precipitated with mouse anti-IFNAR1 and protein A-Sepharose; source: endogenous, lysate of PBMC from SLE patients or healthy controls
T1 sequence (looked up): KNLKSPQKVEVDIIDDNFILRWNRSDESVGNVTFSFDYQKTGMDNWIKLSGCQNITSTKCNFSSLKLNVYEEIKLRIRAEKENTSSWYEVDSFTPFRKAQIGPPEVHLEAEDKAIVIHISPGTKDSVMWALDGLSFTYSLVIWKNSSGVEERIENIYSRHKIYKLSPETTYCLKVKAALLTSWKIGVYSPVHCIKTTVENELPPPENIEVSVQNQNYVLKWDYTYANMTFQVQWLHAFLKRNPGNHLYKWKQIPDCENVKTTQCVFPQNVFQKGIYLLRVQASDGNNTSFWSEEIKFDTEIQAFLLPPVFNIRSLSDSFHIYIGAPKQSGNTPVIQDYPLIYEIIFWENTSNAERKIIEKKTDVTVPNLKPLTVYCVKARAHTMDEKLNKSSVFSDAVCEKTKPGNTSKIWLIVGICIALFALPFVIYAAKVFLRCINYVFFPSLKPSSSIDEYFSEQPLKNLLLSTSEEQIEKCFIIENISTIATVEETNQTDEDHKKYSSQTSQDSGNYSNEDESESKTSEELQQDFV
The experiment in a line: co-IP; lysates (50 µg total protein) of PBMC from SLE patients or healthy controls, cultured in medium alone or with 50 U/ml IFNβ for 0, 30 min, 1 h and 4 h; incubated overnight at 4°C with mouse anti-IFNAR1 (protein A-Sepharose 4B) and/or rabbit anti-IFNAR2 (protein G-Sepharose 4B); blotted for SOCS1, STAT2, Jak1 and Tyk2. To be noted: partners not purified.

The target of assay [2] is T2, IFNAR2 chain of the type I interferon receptor (IFNAR) (human (endogenous in PBMC), UniProt P48551 27-515).
T2 construct: IFNAR2 chain of the human type I interferon receptor, endogenous in peripheral blood mononuclear cells; precipitated with rabbit anti-IFNAR2 and protein G-Sepharose; source: endogenous, lysate of PBMC from SLE patients or healthy controls
T2 sequence (looked up): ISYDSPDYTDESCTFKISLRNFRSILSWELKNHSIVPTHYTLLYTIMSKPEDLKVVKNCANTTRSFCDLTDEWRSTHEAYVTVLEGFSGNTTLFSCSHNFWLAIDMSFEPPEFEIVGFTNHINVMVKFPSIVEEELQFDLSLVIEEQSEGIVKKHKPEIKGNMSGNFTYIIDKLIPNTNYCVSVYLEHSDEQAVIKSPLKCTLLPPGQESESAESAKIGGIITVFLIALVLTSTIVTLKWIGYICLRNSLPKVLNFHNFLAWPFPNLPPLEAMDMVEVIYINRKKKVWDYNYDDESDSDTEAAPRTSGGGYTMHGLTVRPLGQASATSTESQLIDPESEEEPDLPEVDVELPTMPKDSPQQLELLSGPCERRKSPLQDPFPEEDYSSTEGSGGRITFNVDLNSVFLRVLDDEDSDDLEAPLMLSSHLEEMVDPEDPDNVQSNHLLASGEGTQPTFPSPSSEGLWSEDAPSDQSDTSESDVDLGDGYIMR
The description is as above. As to conditions: partners not purified.

B1: suppressor of cytokine signaling 1 (SOCS1) (natural protein, human (endogenous in PBMC), UniProt O15524 1-211, looked up)
chain: MVAHNQVAADNAVSTAAEPRRRPEPSSSSSSSPAAPARPRPCPAVPAPAPGDTHFRTFRSHADYRRITRASALLDACGFYWGPLSVHGAHERLRAEPVGTFLVRDSRQRNCFFALSVKMASGPTSIRVHFQAGRFHLDGSRESFDCLFELLEHYVAAPRRMLGAPLRQRRVRPLQELCRQRIVATVGRENLARIPLNPVLRDYLSSFPFQI
notes: SOCS1, endogenous in human peripheral blood mononuclear cells; detected by blot with anti-SOCS1; source: endogenous, lysate of PBMC from SLE patients or healthy controls
As to B1, the “fold increase of association one hour after IFNβ over unstimulated cells” value was less than 1 fold in assay [1] and approximately 6 fold in assay [2].
